Values quoted from earlier work as cited in article PMC10219982.

Molecular target: Follistatin (UniProt P19883)
Assay: SPR

Chain of UniProt P19883 (P19883 30-344): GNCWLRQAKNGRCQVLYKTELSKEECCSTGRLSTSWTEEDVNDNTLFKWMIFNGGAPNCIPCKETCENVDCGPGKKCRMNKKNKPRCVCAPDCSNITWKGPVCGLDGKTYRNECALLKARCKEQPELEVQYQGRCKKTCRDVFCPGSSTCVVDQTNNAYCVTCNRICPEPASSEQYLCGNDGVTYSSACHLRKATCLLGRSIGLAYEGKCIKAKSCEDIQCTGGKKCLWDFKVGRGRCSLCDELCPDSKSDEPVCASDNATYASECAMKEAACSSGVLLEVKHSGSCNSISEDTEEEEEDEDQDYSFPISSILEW

BMP4 (from UniProt P12644)
Kd: 22.5 nM
